Drawing on paper PMC3005984, “Identification and Partial Characterization of an L-Tyrosine Aminotransferase (TAT) from Arabidopsis thaliana” (Biochemistry Research International, 2010), this text covers Km and kcat for one protein.

Holding throughout (assay type): biochemical, Arabidopsis thaliana
Substrate in series [1]: N[C@@H](Cc1ccc(O)cc1)C(=O)O
The experiment in a line: forward assay, 4-hydroxyphenylpyruvate at A331, nonlinear regression. As to conditions: acceptor 2-ketoglutarate at saturation, 100 mM HEPES-NaOH pH 8.2, 30°C. The text has this:
forward assay, 4-hydroxyphenylpyruvate at A331, nonlinear regression on At5g36160 (L-tyrosine aminotransferase, TAT)

Substrate in series [2]: O=C(O)CCC(=O)C(=O)O
The experiment in a line: forward assay, product absorbance, nonlinear regression. The conditions noted are these: amino donor at saturation (donor for this constant only in supplement), 100 mM HEPES-NaOH pH 8.2, 30°C. The text has this:
forward assay, product absorbance, nonlinear regression on At5g36160 (L-tyrosine aminotransferase, TAT)

Substrate in series [3]: N[C@@H](Cc1ccccc1)C(=O)O
The experiment in a line: forward assay, phenylpyruvate at A320, nonlinear regression. The conditions noted are these: acceptor 2-ketoglutarate at saturation, 100 mM HEPES-NaOH pH 8.2, 30°C. The text has this: forward assay, phenylpyruvate at A320, nonlinear regression on At5g36160 (L-tyrosine aminotransferase, TAT)

Substrate in series [4]: O=C(O)C(=O)Cc1ccc(O)cc1
The experiment in a line: reverse assay, coupled to 2-ketoglutarate dehydrogenase, NADH at A340, nonlinear regression. As to conditions: amino donor glutamate at saturation, 100 mM HEPES-NaOH pH 8.2, 30°C. The text has this: (§1) reverse assay, coupled to 2-ketoglutarate dehydrogenase, NADH at A340, nonlinear regression on At5g36160 (L-tyrosine aminotransferase, TAT)

Substrate in series [5]: O=C(O)C(=O)Cc1ccccc1
The description is as above. As to conditions: amino donor glutamate at saturation, 100 mM HEPES-NaOH pH 8.2, 30°C.
Description: as §1

Substrate in series [6]: N[C@@H](CCC(=O)O)C(=O)O
The series is described as above. The conditions noted are these: amino acceptor at saturation (acceptor for this constant only in supplement), 100 mM HEPES-NaOH pH 8.2, 30°C.
Description: as §1

B1: At5g36160 (L-tyrosine aminotransferase, TAT) (Arabidopsis thaliana) (protein)
chain: MGENGAKRWNFGANEVVERSNSLTIRDYLNTLINCLDGGDVRPVIPLGHGDPSPFPSFRTDQAAVEAICDAVRSTKFNNYSSSSGVPVARKAVAEYLSSDLSYQISPNDVHITAGCVQAIEILISALAIPGANILLPRPTYPMYDSRAAFCQLEVRYFDLLPENGWDVDLDGVEALADDKTVAILVINPCNPCGNVFSRQHLQKIAETACKLGILVIADEVYDHFAFGDKPFVSMAEFAELVPVIVLGAISKRWFVPGWRLGWMVTLDPHGIMKDSGFVQTLINVVNMSTDPATFIQGAMPDIIGNTKEEFFSSKLEMVKKCAEICYEELMKIPCITCPCKPEGSMFTMVKLNFSLLEDISDDLDFCSKLAKEESMIILPGQAVGLKNWLRITFAVELELLIEGFSRLKNFTERHSKNQP
notes: full-length cDNA in pET30a, N-terminal His6 and S-tag kept, E. coli BL21-CodonPlus-RIPL, Talon purified, about 52 kDa on SDS-PAGE; EC 2.6.1.5
B1: the Michaelis constant (Km) turned out to be 190 ± 160 µM in series [1]; 1200 ± 270 µM in series [2]; 840 ± 200 µM in series [3]; 220 ± 50 µM in series [4]; 130 ± 60 µM in series [5]; 1400 ± 160 µM in series [6]. Further, the catalytic constant (kcat) in series [1] was determined as 0.08 s⁻¹; in series [2] it was 0.08 s⁻¹; in series [3], 0.08 s⁻¹; in series [4], 6.1 s⁻¹; in series [5], 6.1 s⁻¹; in series [6] it was 6.1 s⁻¹.

As usually defined, the Km is the substrate concentration at which the rate is half of its maximum. The kcat is the number of substrate molecules converted per active site and unit of time at saturation.
